Experimental findings from patent publication US20230012273A1 (Boehringer Ingelheim, published 2023) are described below.

For assay [1], the target named is T1, cynoSIRPα (EGM_02252), Extracellular Domain + His-Tag (cynomolgus monkey).
T1 construct: also called CySIRPα EGM_02252; not shown: His-Tag
T1 chain: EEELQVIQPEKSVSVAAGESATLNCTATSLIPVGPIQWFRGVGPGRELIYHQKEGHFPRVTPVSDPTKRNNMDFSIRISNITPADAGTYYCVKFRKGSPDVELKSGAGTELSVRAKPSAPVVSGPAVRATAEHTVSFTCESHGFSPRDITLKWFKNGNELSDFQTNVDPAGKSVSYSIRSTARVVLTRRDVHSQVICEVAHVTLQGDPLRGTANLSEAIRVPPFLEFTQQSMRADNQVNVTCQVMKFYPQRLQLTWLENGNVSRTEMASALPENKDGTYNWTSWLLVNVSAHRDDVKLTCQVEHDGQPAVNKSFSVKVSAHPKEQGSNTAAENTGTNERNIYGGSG
The experiment in a line: SPR, antibody captured on Protein A/G, ECD-His analyte. How it is done:
(§1) The binding kinetics of anti-SIRPα antibodies to various SIRPα analytes are determined by surface plasmon resonance (SPR) using a Biacore 8K+(Cytiva). 1×HBS-EP+(Cytiva) is used as running buffer and for all the dilutions unless stated otherwise. The Series S CM5 sensorchip is activated with a 1:1 mixture of 0.1 M NHS (N-hydroxysuccinimide) and 0.4 M EDC (1-Ethyl-3-(3-dimethylaminopropyl) carbodiimide hydrochloride) for 420 seconds at a flow rate of 10 μl/min and immobilized with Protein A/G (Thermo Scientific, 10 μg/ml in 10 mM acetate pH 4.5) for 420 seconds at a flowrate of 10 μl/min resulting in approximately 3000 RU of Protein A/G on the surface. The sensorchip is then deactivated with 1 M ethanolamine HCl pH 8.5 for 420 seconds at a flowrate of 10 μl/min.
(§2) Antibodies (approximately 1 ug/ml) are captured on the Protein A/G surface for 60 seconds at a flowrate of 10 μl/min resulting in capture levels of approximately 240 RU. Dilutions of each SIRP protein (Extracellular Domain+His-Tag, with the concentrations as indicated) are injected as analytes over the captured antibody for 300 seconds of association at a flowrate of 30 μl/min, followed by a dissociation for 600 seconds.

The target of assay [2] is T2, Human SIRPαV1 (NP_542970.1), Extracellular Domain + His-Tag (human, UniProt P78324 31-373).
T2 construct: also called huSIRPαV1; hSIRPαV1; not shown: His-Tag
The experiment in a line: SPR, antibody captured on Protein A/G, ECD-His analyte, 1:1 fit. On the procedure: as §1, §2
(§3) The above procedures are used to measure binding properties of antibodies of the present disclosure. For each analyte used, the highest concentration was as indicated in Example 3 (see Table 36).

The target of assay [3] is T3, Human SIRPαV2 (CAA71403.1), Extracellular Domain + His-Tag (human, UniProt P78324 31-373).
T3 construct: also called huSIRPαV2; hSIRPαV2; not shown: His-Tag
The description is as above. On the procedure:
as §1, §2, §3

Assay [4] concerns the target T4, cynoSIRPα (NP_001271679), Extracellular Domain + His-Tag (cynomolgus monkey).
T4 construct: also called CySIRPα NP_001271679; not shown: His-Tag
T4 chain: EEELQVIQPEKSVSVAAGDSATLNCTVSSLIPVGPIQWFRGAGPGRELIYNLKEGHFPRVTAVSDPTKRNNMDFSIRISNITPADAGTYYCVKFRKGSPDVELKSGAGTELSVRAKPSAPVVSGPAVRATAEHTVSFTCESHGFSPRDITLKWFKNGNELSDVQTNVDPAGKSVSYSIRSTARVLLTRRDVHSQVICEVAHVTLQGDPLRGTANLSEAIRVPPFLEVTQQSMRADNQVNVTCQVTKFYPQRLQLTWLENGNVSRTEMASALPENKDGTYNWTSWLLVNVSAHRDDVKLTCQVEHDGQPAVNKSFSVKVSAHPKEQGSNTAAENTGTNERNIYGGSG
Described as above. How it is done: as §1, §2, §3

The target of assay [5] is T5, cynoSIRPα (XP_015313155), Extracellular Domain + His-Tag (cynomolgus monkey).
T5 construct: also called CySIRPα XP_015313155; not shown: His-Tag
T5 chain: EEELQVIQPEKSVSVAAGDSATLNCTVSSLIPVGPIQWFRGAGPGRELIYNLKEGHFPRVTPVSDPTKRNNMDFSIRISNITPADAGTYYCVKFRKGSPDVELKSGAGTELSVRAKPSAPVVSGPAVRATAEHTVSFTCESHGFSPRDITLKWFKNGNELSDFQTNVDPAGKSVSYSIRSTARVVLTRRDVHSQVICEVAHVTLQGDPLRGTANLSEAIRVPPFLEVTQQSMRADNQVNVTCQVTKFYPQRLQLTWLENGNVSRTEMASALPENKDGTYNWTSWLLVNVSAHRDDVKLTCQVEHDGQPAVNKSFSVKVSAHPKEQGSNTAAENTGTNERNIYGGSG
Described as above. On the procedure: as §1, §2, §3

T2 sequence (P78324 other isoform, or with tags, fused parts or gaps): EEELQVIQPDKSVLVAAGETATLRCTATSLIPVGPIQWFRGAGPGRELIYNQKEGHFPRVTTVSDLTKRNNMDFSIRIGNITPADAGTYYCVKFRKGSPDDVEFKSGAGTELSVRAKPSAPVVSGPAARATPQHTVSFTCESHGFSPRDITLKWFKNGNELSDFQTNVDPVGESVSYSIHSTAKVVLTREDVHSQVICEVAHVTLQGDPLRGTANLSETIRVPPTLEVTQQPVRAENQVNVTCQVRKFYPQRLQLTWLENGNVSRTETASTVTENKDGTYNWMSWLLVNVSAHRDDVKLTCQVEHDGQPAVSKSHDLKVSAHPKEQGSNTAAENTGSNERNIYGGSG
T3 sequence (P78324 other isoform, or with tags, fused parts or gaps): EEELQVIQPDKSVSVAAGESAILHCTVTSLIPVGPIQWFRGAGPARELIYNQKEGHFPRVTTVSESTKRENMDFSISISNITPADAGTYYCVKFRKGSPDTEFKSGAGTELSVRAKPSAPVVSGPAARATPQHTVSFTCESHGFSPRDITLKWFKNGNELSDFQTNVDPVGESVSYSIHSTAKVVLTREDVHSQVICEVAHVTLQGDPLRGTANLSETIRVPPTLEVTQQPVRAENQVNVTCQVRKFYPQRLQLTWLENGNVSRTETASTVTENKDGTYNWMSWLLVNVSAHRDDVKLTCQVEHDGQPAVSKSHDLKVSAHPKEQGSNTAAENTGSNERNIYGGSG

B1: Antibody E10 (antibody, human IgG1, kappa, L234A L235A, V domains shown)
VH: QVQLQESGPGLVRPSETLSLTCTVSGGSIRNYYWSWIRQPPGKGLEWIGFIYYNGRTFYNPSLKSRVTISLDTSKNQFSLKMTSVTAADTAVYYCARVRAYSGIGLDGTDVWGQGTTVTVSS
VL: DIVMTQSPLSLPVTPGEPASISCKSSQSLLYSNGYAYLDWYLQRPGQSPQLLIYLGSNRASGVPDRFSGSGSGTDFTLKISRVEAEDVGVYYCMQALQTPLTFGGGTKVEIKR
B1: the binding result in assay [1] is “no binding (tested: 1000 nM)”. Further, the Kd is 1.23 nM in assay [2], 1.2 nM in assay [3], 25.2 nM in assay [4] and 23.7 nM in assay [5]. The koff in assay [2] worked out at 0.000518 s⁻¹; in assay [3] it was 0.000596 s⁻¹; in assay [4] it was 0.00545 s⁻¹; in assay [5] it was 0.00526 s⁻¹. For the same molecule, the kon was determined as 422000 M⁻¹ s⁻¹ in assay [2], 498000 M⁻¹ s⁻¹ in assay [3], 216000 M⁻¹ s⁻¹ in assay [4] and 222000 M⁻¹ s⁻¹ in assay [5].

B2: Antibody E12 (antibody, human IgG1, kappa, L234A L235A, V domains shown)
VH: QVQLQESGPGLVRPSETLSLTCTVSGGSIRNYYWSWIRQPPGKGLEWIGFIYYNGRTFYNPSLKSRVTISLDMSKNQFSLKMTSVTAADTAVYYCARVRAYSGIGLDGTDVWGQGTTVTVSS
VL: DIVMTQSPLSLPVTPGEPASISCKSSQSLLYSNAYNYLDWYLQRPGQSPQLLIYLGSNRASGVPDRFSGSGSGTDFTLKISRVEAEDVGVYYCMQALQTPLTFGGGTKVEIKR
For the molecule B2, the binding result in assay [1] is “no binding (tested: 1000 nM)”. In addition, the Kd worked out at 1.67 nM in assay [2], 1.26 nM in assay [3], 46.1 nM in assay [4] and 42.2 nM in assay [5]. Also, the koff came to 0.000819 s⁻¹ in assay [2], 0.000709 s⁻¹ in assay [3], 0.0129 s⁻¹ in assay [4] and 0.0125 s⁻¹ in assay [5]. Moreover, the kon in assay [2] was determined as 490000 M⁻¹ s⁻¹; in assay [3], 562000 M⁻¹ s⁻¹; in assay [4], 279000 M⁻¹ s⁻¹; in assay [5], 297000 M⁻¹ s⁻¹.

B3: Antibody E16 (antibody, human IgG1, kappa, L234A L235A, V domains shown)
VH: QVQLQESGPGLVRPSETLSLTCTVSGGSIRNYYWSWIRQPPGKGLEWIGFIYYNGRTFYNPSLKSRVTISLDTSKNQFSLKMTSVTAADTAVYYCARVRAYSGIGLDGTDVWGQGTTVTVSS
VL: DIVMTQSPLSLPVTPGEPASISCKSSQSLLYSNAYNYLDWYLQRPGQSPQLLIYLGSNRASGVPDRFSGSGSGTDFTLKISRVEAEDVGVYYCMQALQTPLTFGGGTKVEIKR
As to B3, in assay [1], the binding result is reported as “no binding (tested: 1000 nM)”. Moreover, the Kd in assay [2] was 2.15 nM; in assay [3], 1.93 nM; in assay [4], 50 nM; in assay [5], 48.8 nM. Further, the koff was determined as 0.00106 s⁻¹ in assay [2], 0.00105 s⁻¹ in assay [3], 0.0158 s⁻¹ in assay [4] and 0.0147 s⁻¹ in assay [5]. Further, the kon in assay [2] was 490000 M⁻¹ s⁻¹; in assay [3], 547000 M⁻¹ s⁻¹; in assay [4] it was 313000 M⁻¹ s⁻¹; in assay [5], 300000 M⁻¹ s⁻¹.

B4: Antibody E13 (antibody, human IgG1, kappa, L234A L235A, V domains shown)
VH: QVQLQESGPGLVRPSETLSLTCTVSGGSIRNYYWSWIRQPPGKGLEWIGFIYYTGRTFYNPSLKSRVTISLDMSINQFSLKMTSVTAADTAVYYCARVRAYSGIGLDGTDVWGQGTTVTVSS
VL: DIVMTQSPLSLPVTPGEPASISCKSSQSLLYSNGYAYLDWYLQRPGQSPQLLIYQGSNRASGVPDRFSGSGSGTDFTLKISRVEAEDVGVFYCMQALQTPLTFGGGTKVEIKR
With B4, the binding result in assay [1] is “no binding (tested: 1000 nM)”. Also, the Kd in assay [2] is 1.7 nM; in assay [3], 0.69 nM; in assay [4] it was 38.3 nM; in assay [5] it was 37.4 nM. Also, the off-rate constant (koff) amounted to 0.000671 s⁻¹ in assay [2], 0.000338 s⁻¹ in assay [3], 0.00755 s⁻¹ in assay [4] and 0.00711 s⁻¹ in assay [5]. Also, the kon was 394000 M⁻¹ s⁻¹ in assay [2], 490000 M⁻¹ s⁻¹ in assay [3], 197000 M⁻¹ s⁻¹ in assay [4] and 190000 M⁻¹ s⁻¹ in assay [5].

B5: Antibody E15 (antibody, human IgG1, kappa, L234A L235A, V domains shown)
VH: QVQLQESGPGLVRPSETLSLTCTVSGGSIRNYYWSWIRQPPGKGLEWIGFIYYTGRTFYNPSLKSRVTISLDMSINQFSLKMTSVTAADTAVYYCARVRAYSGIGLDGTDVWGQGTTVTVSS
VL: DIVMTQSPLSLPVTPGEPASISCKSSQSLLYSNGYAYLDWYLQRPGQSPQLLIYLGSNRASGVPDRFSGSGSGTDFTLKISRVEAEDVGVYYCMQALQTPLTFGGGTKVEIKR
With B5, the binding result in assay [1] is recorded as “no binding (tested: 1000 nM)”. Also, the Kd in assay [2] worked out at 1.91 nM; in assay [3], 0.74 nM; in assay [4] it was 49.4 nM; in assay [5], 46.2 nM. Besides, the koff was 0.000802 s⁻¹ in assay [2], 0.000369 s⁻¹ in assay [3], 0.012 s⁻¹ in assay [4] and 0.0113 s⁻¹ in assay [5]. For the same molecule, the kon in assay [2] came out at 421000 M⁻¹ s⁻¹; in assay [3], 501000 M⁻¹ s⁻¹; in assay [4], 243000 M⁻¹ s⁻¹; in assay [5] it was 245000 M⁻¹ s⁻¹.

B6: Antibody E11 (antibody, human IgG1, kappa, L234A L235A, V domains shown)
VH: QVQLQESGPGLVRPSETLSLTCTVSGGSIRNYYWSWIRQPPGKGLEWMGFIYDNGRTFYNPSLKSRVTISLDMSMNQFSLKMTSVTAADTAVYYCARVRAYSGIGLDGTDVWGQGTTVTVSS
VL: DIVMTQSPLSLPVTPGEPASISCKSSQSLLYSNGYAYLDWYLQRPGQSPQLLIYLGSNRASGVPDRFSGSGSGTDFTLKISRVEAEDVGVYYCMQALQTPLTFGGGTKVEIKR
Take B6: the binding result in assay [1] is reported as “no binding (tested: 1000 nM)”. In addition, the Kd in assay [2] worked out at 1.41 nM; in assay [3], 0.57 nM; in assay [4], 20.3 nM; in assay [5], 20 nM. Besides, the koff in assay [2] turned out to be 0.000498 s⁻¹; in assay [3], 0.000258 s⁻¹; in assay [4] it was 0.00542 s⁻¹; in assay [5] it was 0.00549 s⁻¹. For the same molecule, the kon turned out to be 352000 M⁻¹ s⁻¹ in assay [2], 453000 M⁻¹ s⁻¹ in assay [3], 267000 M⁻¹ s⁻¹ in assay [4] and 275000 M⁻¹ s⁻¹ in assay [5].

B7: Antibody E14 (antibody, human IgG1, kappa, L234A L235A, V domains shown)
VH: QVQLQESGPGLVRPSETLSLTCTVSGGSIRNYYWSWIRQPPGKGLEWIGFIYYNGRTFYNPSLKSRVTISLDKSKNQFSLKMTSVTAADTAVYYCARVRAYSGIGLDGTDVWGQGTTVTVSS
VL: DIVMTQSPLSLPVTPGEPASISCKSSQSLLYSNAYNYLDWYLQRPGQSPQLLIYLGSNRASGVPDRFSGSGSGTDFTLKISRVEAEDVGVYYCMQALQTPLTFGGGTKVEIKR
On to B7, for which the binding result in assay [1] is given as “no binding (tested: 1000 nM)”. Further, the Kd in assay [2] came out at 1.84 nM; in assay [3] it was 1.36 nM; in assay [4] it was 90.7 nM; in assay [5], 86.3 nM. The koff in assay [2] was determined as 0.000743 s⁻¹; in assay [3], 0.000615 s⁻¹; in assay [4] it was 0.0173 s⁻¹; in assay [5] it was 0.0173 s⁻¹. Further, the kon in assay [2] was determined as 403000 M⁻¹ s⁻¹; in assay [3], 453000 M⁻¹ s⁻¹; in assay [4] it was 190000 M⁻¹ s⁻¹; in assay [5], 200000 M⁻¹ s⁻¹.
